Measured values: patent US20230398182A1 (ACCELERON PHARMA, published 2023)

Molecular target: T1, hTβRII (G4S)2-hFc (human)
T1 construct: 70 lacks the C-terminal lysine; Expressed in CHO cells
Experiment: SPR (Biacore), in vitro

T1 sequence (chain, as listed by the source limits assumed): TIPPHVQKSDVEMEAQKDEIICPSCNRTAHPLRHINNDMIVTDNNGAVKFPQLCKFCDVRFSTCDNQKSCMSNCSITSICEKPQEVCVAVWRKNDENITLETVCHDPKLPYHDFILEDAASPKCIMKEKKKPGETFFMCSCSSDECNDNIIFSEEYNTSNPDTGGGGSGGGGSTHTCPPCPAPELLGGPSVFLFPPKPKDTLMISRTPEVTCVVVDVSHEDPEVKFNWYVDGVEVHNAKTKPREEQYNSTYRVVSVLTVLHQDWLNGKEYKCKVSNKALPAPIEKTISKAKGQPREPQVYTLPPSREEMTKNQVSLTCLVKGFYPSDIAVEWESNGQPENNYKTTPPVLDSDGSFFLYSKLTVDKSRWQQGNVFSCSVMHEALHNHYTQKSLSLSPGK

- binding result: binds
B1: Human TGFβ2 (ligand, UniProt P61812 303-414, looked up)
chain: ALDAAYCFRNVQDNCCLRPLYIDFKRDLGWKWIHEPKGYNANFCAGACPYLWSSDTQHSRVLSLYNTINPEASASPCCVSQDLEPLTILYYIGKTPKIEQLSNMIVKSCKCS
